No end group written: not given here. fluorescein = fluorescein (N-terminal label)
Experiments:
ScSsz1-Zuo1NΔLP complex = biological target: T1, ScSsz1-Zuo1NΔLP complex (Saccharomyces cerevisiae, UniProt P32527+P38788); assay type: binding; settings: fluorescence anisotropy; N-terminally fluorescein-labelled peptide, 40 nM mixed 1:1 with protein; pH 7.5, 200 mM KCl; 30 min, room temperature; Ssz1-Zuo1NΔLP
T1 construct: His6-SUMO (N); made in house
Description: (§1) 1 µM BSA was added to prevent unspecific binding of the fluorescently labelled peptide to the microplate (Greiner Bio-One opaque 384 well plate). Fluorescence anisotropy measurements were performed using the LP-peptide (MFSLPTL) or the NR-peptide (NRLLLTG) labelled at the N terminus with fluorescein (Peptide Specialty Laboratories GmbH, Heidelberg). Two-fold serial dilutions of each protein (ScSsz1-Zuo1N or ScSsz1-Zuo1NΔLP) were mixed in a 1:1 ratio with 40 nM peptides in anisotropy buffer in 384-well opaque plates (Greiner Bio One) and were incubated at room temperature for 30 min. Measurements were performed in triplicate using a plate reader (SpectraMax M5e Multi Mode Microplate reader, Molecular Devices). To determine the binding constant (KD) the data were fitted to a one-site binding equation using Python[57].
(§2) Ssz1-Zuo1NΔLP Ssz1-Zuo1NΔLP
(§3) Supplementary Figure 6. Figure S6
(§4) An al ysi s o f su b strate b in di ng to ScRAC co re vari ants b y fl uo rescen ce an i so trop y.
(§5) (a) Binding curves of the fluorescently labeled LP-pept ide or (b ) NR-peptide to Ssz1-Zuo1N (circle) or
(§6) Ssz1-Zuo1NDLP (square) are shown. The mean and standard deviation from three technical replicates
(§7) is indicated. Source data are provided as a Source Data file.

ScSsz1-Zuo1N complex = biological target: T2, ScSsz1-Zuo1N complex (Saccharomyces cerevisiae, UniProt P32527+P38788); test: fluorescence anisotropy peptide binding; settings: N-terminally fluorescein-labelled peptide, 40 nM mixed 1:1 with protein, pH 7.5, 200 mM KCl, 30 min, room temperature, Ssz1-Zuo1N
T2 construct: His6-SUMO (N); made in house
T2 sequence (P38788 1-538): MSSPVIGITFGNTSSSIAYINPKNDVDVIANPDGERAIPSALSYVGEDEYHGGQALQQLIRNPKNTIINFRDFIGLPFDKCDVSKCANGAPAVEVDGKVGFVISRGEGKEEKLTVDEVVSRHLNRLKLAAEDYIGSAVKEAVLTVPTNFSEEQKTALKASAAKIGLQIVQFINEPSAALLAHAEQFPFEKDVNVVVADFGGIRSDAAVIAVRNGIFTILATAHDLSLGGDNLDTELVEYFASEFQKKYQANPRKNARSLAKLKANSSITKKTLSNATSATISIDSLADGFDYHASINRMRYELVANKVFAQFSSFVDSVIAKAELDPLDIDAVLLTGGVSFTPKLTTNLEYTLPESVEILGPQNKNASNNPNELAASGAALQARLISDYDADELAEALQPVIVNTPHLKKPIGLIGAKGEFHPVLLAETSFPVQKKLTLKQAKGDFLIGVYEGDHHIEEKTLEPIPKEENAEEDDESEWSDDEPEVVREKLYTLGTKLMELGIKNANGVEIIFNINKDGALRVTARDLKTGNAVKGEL
T2 sequence (P32527 1-50 partner): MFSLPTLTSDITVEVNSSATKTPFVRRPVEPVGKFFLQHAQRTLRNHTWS
Description: as §1, §2, §3, §4, §5, §6, §7

Zuo1-ΔN8 = test: peptide competition with nascent chain crosslinking (XL-Zuo1); assay type: biochemical, Saccharomyces cerevisiae; settings: RNCs Pgk1-100, RAC-ΔN8, Δssb; peptide added prior to 400 µM BS3 crosslinking, 5 or 50 µM
Text: Fig. 3 Nascent chain binding to the Ssz1-SBD is modulated by the N-terminus of Zuo1. a Amino acid sequence of the ScZuo1N. Arrows indicate the positions of truncations in Zuo1-ΔN8, Zuo1-ΔN16, and Zuo1-ΔN49. The color code is as in Fig. 2a. The secondary structure derived from the crystal structure is depicted above. b The Zuo1N LP-motif interferes with the contact of nascent Pgk1-100 with Zuo1 and Ssz1. Ribosome-free extracts obtained from Δssb1Δssb2 (Zuo1, Ssz1), Δssb1Δssb2 RAC-ΔN8 (ΔN8, Ssz1), or Δssb1Δssb2 RAC-ΔN16 (ΔN16, Ssz1) strains (upper panel) were added to RNCs from Δssb1Δssb2Δzuo1Δssz1 translation extract prior to crosslinking. Crosslink products between Zuo1 and nascent Pgk1-100 (XL-Zuo1) and Ssz1 and nascent Pgk1-100 (XL-Ssz1), respectively. c, d Quantification of crosslinking between nascent Pgk1-100 and Zuo1 (c) and Ssz1 (d). Autoradiographs as shown in (b) were employed for the quantification of nascent Pgk1-100 and the crosslink products XL-Zuo1 and XL-Ssz1. Values were normalized as described in Methods. The efficiency of crosslinking is given as a percentage of nascent Pgk1-100 present in the reaction. […]
(§8) Chemical crosslinking of ribosome-bound nascent chains to Ssb, Zuo1, or Ssz1 was analyzed essentially as described. […] Samples were analyzed on Tris-Tricine gels[56] followed by autoradiography. […]

Ssz1 in RAC-ΔN8 = test: peptide competition with nascent chain crosslinking (XL-Ssz1); assay type: biochemical, Saccharomyces cerevisiae
Text: Fig. 3 Nascent chain binding to the Ssz1-SBD is modulated by the N-terminus of Zuo1. a Amino acid sequence of the ScZuo1N. Arrows indicate the positions of truncations in Zuo1-ΔN8, Zuo1-ΔN16, and Zuo1-ΔN49. The color code is as in Fig. 2a. The secondary structure derived from the crystal structure is depicted above. b The Zuo1N LP-motif interferes with the contact of nascent Pgk1-100 with Zuo1 and Ssz1. Ribosome-free extracts obtained from Δssb1Δssb2 (Zuo1, Ssz1), Δssb1Δssb2 RAC-ΔN8 (ΔN8, Ssz1), or Δssb1Δssb2 RAC-ΔN16 (ΔN16, Ssz1) strains (upper panel) were added to RNCs from Δssb1Δssb2Δzuo1Δssz1 translation extract prior to crosslinking. Crosslink products between Zuo1 and nascent Pgk1-100 (XL-Zuo1) and Ssz1 and nascent Pgk1-100 (XL-Ssz1), respectively. c, d Quantification of crosslinking between nascent Pgk1-100 and Zuo1 (c) and Ssz1 (d). Autoradiographs as shown in (b) were employed for the quantification of nascent Pgk1-100 and the crosslink products XL-Zuo1 and XL-Ssz1. Values were normalized as described in Methods. The efficiency of crosslinking is given as a percentage of nascent Pgk1-100 present in the reaction. Experiments were performed in triplicate, with the exception of the XL-Zuo1-ΔN8 (shown in c), which was performed only once. Shown is the mean (bars) and the result of each biologically independent experiment (dots). Error bars indicate the standard deviation of the mean. e Crosslinking of the nascent chain to Ssz1 requires a functional peptide binding groove. Ribosome-free extracts from Δssb1Δssb2 RAC-ΔN8 (Zuo1-ΔN8, Ssz1) or Δssb1Δssb2 RACmut-ΔN8 (Zuo1-ΔN8, Ssz1mut) (upper panel) was added to RNCs generated in Δssb1Δssb2Δzuo1Δssz1 translation extract as described in Fig. 1b. […] RNCs were generated in a Δssb1Δssb2Δzuo1Δssz1 translation extract and ribosome-free extract from Δssb1Δssb2 RAC-ΔN8 (Zuo1-ΔN8, Ssz1) was added. […]
as §8

ATP-bound DnaK = settings: read-out: affinity for ATP-bound DnaK, low-affinity state; cited from earlier work
[1] = biological target: T3, ScSsz1-Zuo1NΔLP complex (ScSsz1 with ScZuo1NΔLP residues 10-50) (S. cerevisiae, UniProt P38788 1-538; P32527 10-50); test: fluorescence polarisation; fluorescence anisotropy; two-fold serial dilutions of the protein complex mixed 1:1 with 40 nM fluorescein peptide; 20 mM Hepes/KOH pH 7.5, 200 mM KCl, 5 mM MgCl2, 1 mM DTT, 1 µM BSA; room temperature, 30 min; one-site binding fit; affinity called estimated; settings: both partners purified
T3 construct: Ssz1, S. cerevisiae; Zuo1, S. cerevisiae, residues 10-50, lacking the LP-motif (ScZuo1NΔLP); residues of the 3C site may be left on Zuo1NΔLP; not shown: His6-MBP, N-terminal, cleaved
T3 sequence (looked up) 1: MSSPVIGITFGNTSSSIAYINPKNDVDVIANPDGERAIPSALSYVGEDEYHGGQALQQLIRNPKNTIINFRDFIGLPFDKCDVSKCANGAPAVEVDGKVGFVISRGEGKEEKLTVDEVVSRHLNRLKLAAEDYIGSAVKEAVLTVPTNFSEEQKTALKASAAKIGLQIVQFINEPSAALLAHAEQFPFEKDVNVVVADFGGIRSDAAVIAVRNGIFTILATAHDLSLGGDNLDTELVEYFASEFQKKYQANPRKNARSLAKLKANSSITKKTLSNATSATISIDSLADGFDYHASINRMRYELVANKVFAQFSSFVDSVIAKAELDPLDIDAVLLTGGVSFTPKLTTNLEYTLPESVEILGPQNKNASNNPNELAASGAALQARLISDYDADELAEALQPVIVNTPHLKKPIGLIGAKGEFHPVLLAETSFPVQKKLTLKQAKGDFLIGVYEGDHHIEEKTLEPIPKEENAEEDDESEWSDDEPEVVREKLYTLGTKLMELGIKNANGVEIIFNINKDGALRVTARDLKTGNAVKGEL
T3 sequence (looked up) 2: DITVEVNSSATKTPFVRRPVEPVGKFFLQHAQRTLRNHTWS

[2] = biological target: T3, ScSsz1-Zuo1NΔLP complex (ScSsz1 with …); test: nanoDSF; melting temperature of the complex with or without LP-peptide; 20 mM Hepes/KOH pH 7.5, 200 mM KCl, 5 mM MgCl2, 1 mM DTT; 20 to 90 °C at 1.5 °C/min; settings: both partners purified
[3] = nanoDSF thermal stability of RAC core complexes; assay type: physicochemical, Saccharomyces cerevisiae; settings: 20 mM Hepes/KOH pH 7.5, 200 mM KCl, 5 mM MgCl2, 1 mM DTT, 20 to 90 °C at 1.5 °C/min, 330/350 nm, no peptide, three measurements shown
Description: (§9) The melting temperature of ScSsz1-Zuo1N, ScSsz1-Zuo1NΔLP or ScSsz1mut-Zuo1NΔLP with or without the LP-peptide (Peptide Specialty Laboratories GmbH, Heidelberg) were determined using the Prometheus NT.48 nanoDSF system using nano-DSF grade capillaries (NanoTemper Technologies GmbH). The measurements were performed in 20 mM Hepes/KOH pH 7.5, 200 mM KCl, 5 mM MgCl2, 1 mM DTT. The LP-peptide, which was dissolved in DMSO, was pre-diluted in the above buffer such that the final DMSO concentration in the experiment was below 0.5%. DMSO diluted in the same way was added to the negative control. Intrinsic protein fluorescence was measured continuously at 330 nm and 350 nm with a temperature gradient ranging from 20 to 90 °C at a rate of 1.5 °C/min. […]
(§10) (a-b) NanoDSF analysis of Ssz1-Zuo1N (blue) and Ssz1-Zuo1NDLP (orange) in a and Ssz1-Zuo1NDLP wit hout t he LP-pept ide (orange) or wit h t he LP-pept ide (blue) in b. Three measurements are shown.
(§11) Source data are provided as a Source Dat a f ile.
(§12) (c) Residues (L439S/K440P/I448F/G495K) mutated in Ssz1mut to block substrate binding to Ssz1-SBDb (cyan) are in stick representation (upper panel). Zuo1N is shown in orange a nd the LP-motif in yellow. Multiple sequence alignment of Hsp70 homologs (lower panel) wit h the mutations highlighted in yellow. The alignment is colored as in Fig. 2a. […]

ScSsz1-Zuo1NΔLP = test: nanoDSF melting temperature with/without LP-peptide; assay type: binding, Saccharomyces cerevisiae; settings: DMSO negative control (<0.5%), pH 7.5, 200 mM KCl, 20 to 90 °C at 1.5 °C/min, three measurements shown
Description: as §9, §10, §11, §12

## NRLLLTG [NR-peptide]
ScSsz1-Zuo1NΔLP complex
  affinity: below the detection limit
ScSsz1-Zuo1N complex
  affinity: below the detection limit
Zuo1-ΔN8
  effect on nascent chain crosslinking to Zuo1-ΔN8 (XL-Zuo1): Neither of the peptides added prior to the crosslinking reaction affected nascent chain crosslinking to Zuo1-ΔN8
Ssz1 in RAC-ΔN8; 50 µM peptide, ribosome-bound nascent chain
  displacement of nascent chain: partly displaced
Ssz1 in RAC-ΔN8; RNCs Pgk1-100, RAC-ΔN8, Δssb, peptide added prior to 400 µM BS3 crosslinking, 5 or 50 µM
  effect on nascent chain crosslinking to Ssz1 (XL-Ssz1): to a lesser extent also NR-peptide, significantly reduced crosslinking of the nascent chain to Ssz1
Ssz1 in RAC-ΔN8; ribosome-bound nascent chain, 50 µM peptide
  displacement compared with LP-peptide: significantly lower
ATP-bound DnaK
  Kd: 23.8 ± 3.8 µM

B1: LP-peptide (MFSLPTL) labelled at the N terminus with fluorescein (peptide)
peptide: fluorescein-MFSLPTL
notes: LP-motif of Zuo1, S. cerevisiae, residues 1-7; source: synthetic peptide (Peptide Specialty Laboratories GmbH, Heidelberg)
[1]
  Kd: 11.9 ± 4 µM

B2: LP-peptide (MFSLPTL, ScZuo1 residues 1-7), free peptide (peptide)
peptide: MFSLPTL
notes: as for B1
[2]
  binding result: binds

B3: Ssz1-Zuo1NΔLP: ScSsz1 with ScZuo1NΔLP (residues 10-50) lacking the LP-motif (protein)
chain 1: MSSPVIGITFGNTSSSIAYINPKNDVDVIANPDGERAIPSALSYVGEDEYHGGQALQQLIRNPKNTIINFRDFIGLPFDKCDVSKCANGAPAVEVDGKVGFVISRGEGKEEKLTVDEVVSRHLNRLKLAAEDYIGSAVKEAVLTVPTNFSEEQKTALKASAAKIGLQIVQFINEPSAALLAHAEQFPFEKDVNVVVADFGGIRSDAAVIAVRNGIFTILATAHDLSLGGDNLDTELVEYFASEFQKKYQANPRKNARSLAKLKANSSITKKTLSNATSATISIDSLADGFDYHASINRMRYELVANKVFAQFSSFVDSVIAKAELDPLDIDAVLLTGGVSFTPKLTTNLEYTLPESVEILGPQNKNASNNPNELAASGAALQARLISDYDADELAEALQPVIVNTPHLKKPIGLIGAKGEFHPVLLAETSFPVQKKLTLKQAKGDFLIGVYEGDHHIEEKTLEPIPKEENAEEDDESEWSDDEPEVVREKLYTLGTKLMELGIKNANGVEIIFNINKDGALRVTARDLKTGNAVKGEL
chain 2: DITVEVNSSATKTPFVRRPVEPVGKFFLQHAQRTLRNHTWS
modifications: left off: His6-SUMO, N-terminal, state not stated | His6-MBP, N-terminal, cleaved
notes: ScSsz1 with ScZuo1NΔLP (residues 10-50) lacking the LP-motif
[3]
  melting temperature (thermal stability of RAC core complex): 39.7 °C
ScSsz1-Zuo1NΔLP
  melting temperature of Ssz1-Zuo1NΔLP without LP-peptide: 40.3 °C

Source: article PMC7083937, “The ribosome-associated complex RAC serves in a relay that directs nascent chains to Ssb” (Nature Communications, 2020)
